How the values were obtained:
[1] = molecular target: T1, murine GPC3-his protein (Sino Biological, Cat. No. 50989-M08B) (murine, UniProt Q8CFZ4 25-558); assay: ELISA, coated murine GPC3-His;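 note: antigen coated on plates at 1 µg/mL, test antibody bound for 2 h at 37 °C, detected with HRP-conjugated secondary antibody and TMB substrate after acid stop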
T1 construct: Bought protein; also called murine GPC3 protein

[2] = molecular target: T2, human GPC3 on CHO-K1-human GPC3 cells (CHOK1-hGPC3.2B5) (human, UniProt P51654 25-554); assay: FACS, CHOK1-hGPC3.2B5 cells;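 note: flow cytometry of humanized antibodies binding to the cells over one hour in the cold, read as cell mean fluorescence intensity, with EC50 obtained by curve fitting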
T2 construct: whole, on cells

[3] = molecular target: biotinylated labeled human GPC3 protein (produced in-house) (human, UniProt P51654 25-559, limits assumed, biotinylated (Dojindo, Cat. No. LK03); sites not stated); assay: ELISA, biotinylated human GPC3 protein

T1 sequence (Q8CFZ4 25-558 limits assumed): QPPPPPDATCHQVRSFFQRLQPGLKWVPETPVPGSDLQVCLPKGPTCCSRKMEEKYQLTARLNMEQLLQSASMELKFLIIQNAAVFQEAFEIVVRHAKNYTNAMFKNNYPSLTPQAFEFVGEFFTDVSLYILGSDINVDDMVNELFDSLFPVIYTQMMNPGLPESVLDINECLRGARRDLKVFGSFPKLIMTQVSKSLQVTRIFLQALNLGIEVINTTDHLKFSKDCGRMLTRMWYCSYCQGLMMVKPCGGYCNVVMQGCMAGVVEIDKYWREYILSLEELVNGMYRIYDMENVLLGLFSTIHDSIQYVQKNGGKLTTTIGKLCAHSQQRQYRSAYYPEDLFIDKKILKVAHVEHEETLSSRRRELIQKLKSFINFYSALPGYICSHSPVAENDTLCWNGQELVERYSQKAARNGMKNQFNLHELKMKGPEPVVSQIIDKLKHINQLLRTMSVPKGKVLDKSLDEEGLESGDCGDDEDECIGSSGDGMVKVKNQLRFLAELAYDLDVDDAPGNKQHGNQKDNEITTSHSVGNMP

OD450 at 0.0001 nM antibody [1] [OD450 nm] | OD450 at 0.001 nM antibody [1] [OD450 nm] | OD450 at 0.01 nM antibody [1] [OD450 nm] | OD450 at 0.1 nM antibody [1] [OD450 nm] | OD450 at 1 nM antibody [1] [OD450 nm] | OD450 at 10 nM antibody [1] [OD450 nm] | OD450 at 100 nM antibody [1] [OD450 nm] | EC50 [2] [nM] | Max MFI [2] [MFI] | OD450 at 0.0008 nM [3] [OD450] | OD450 at 0.004 nM [3] [OD450] | OD450 at 0.02 nM [3] [OD450] | OD450 at 0.11 nM [3] [OD450] | OD450 at 0.53 nM [3] [OD450] | OD450 at 2.67 nM [3] [OD450] | OD450 at 13.33 nM [3] [OD450] | OD450 at 66.66 nM [3] [OD450] | Binder
0.18 | 0.15 | 0.1 | 0.1 | 0.14 | 0.16 | 0.13 | – | – | – | – | – | – | – | – | – | – | F4.18.4 human-murine chimeric antibody (antibody, human IgG1, kappa, V domains shown) VH: QVQLHQSGAEMAKPGASVNLSCKTSGFTFTDYGISWVKQRTRQGLEWIGDIYPRHINIYYNEKFKDKATLTADRSSSTAYMELRSMTSEDSAVYFCARRGTTGRGALDYWGQGTSLTVSS VL: DILLTQSPAILSVSPGERVSFSCRASQSIGTSIHWYQQRTNGSPRLLIKYAFESISGIPSRFGGSGSRTDFTLTINSVESEDIADYYCQQTYNWPYTFGGGTKLEIKR
0.05 | 0.12 | 0.67 | 1.94 | 2.54 | 2.53 | 2.47 | – | – | – | – | – | – | – | – | – | – | F2.152.3 human-murine chimeric antibody (antibody, human IgG1, kappa, V domains shown) VH: EVQLQQSGPELVKPGASVKMSCKASGYTFTDYYMTWVKQSHGKSLEWIGRVNPRNGDTTYNQKFEGRATLTLDKSLSTAFMQLNSLTSEDSAVYYCINSKGHFDYWGQGTTLTVSS VL: DVLMTQTPLSLPVSLGDQASISCRSSQSIVHSNGNTYLEWFLQKPGQSPKSLIYKVSNRFSGVPDRFSGSGSGTDFTLKISRVEAEDLGVYYCFQGSHVPPTFGAGTKLELKR
0.06 | 0.11 | 0.54 | 2.12 | 2.86 | 2.88 | 2.87 | – | – | – | – | – | – | – | – | – | – | F4.13.7 human-murine chimeric antibody (antibody, human IgG1, kappa, V domains shown) VH: QVQLQQPGAELVKPGASVKLSCKASGYTFTNNWVHWVKQRPGQGLEWTGMIHPDSGSTIYNEKFQSKATLTVDKSSSTAYMQLSSLTSEDSAVYYCARGYYDSSSYYAMDYWGQGTSVTVSS VL: NIQMTQTTSSLSASLGDRVTISCSASQGIFNYLNWYQQKPDGTVKLLIYYTSSLHSGVPSRFSGSGSGTDYSLTISNLEPEDIATYYCQQYSKLPWTFGGGTKLEIKR
– | – | – | – | – | – | – | 0.313 | 3400 | 0.162 | 0.341 | 0.926 | 2 | 2.64 | 2.67 | 2.72 | 2.74 | hAb001H1L1 (antibody, human IgG1, V domains shown, Humanized F2.169.2; VH H1 + VL L1; expressed as human IgG1) VH: EVQLVESGGGLVQPGGSLRLSCAASGFSFNTNAMNWVRQAPGKGLEWVGRIRSKSNNYATYYADSVKDRFTISRDDSKNSLYLQMNSLKTEDTAVYYCVRDGYYVLFAYWGQGTLVTVSS VL: DIVMTQTPLSLPVTPGEPASISCRFSQSIVNSNGNTYLEWFLQKPGQSPQLLIYKVSNRFSGVPDRFSGSGSGTDFTLKISRVEAEDVGVYYCFQGSHVPFTFGQGTKLEIK
– | – | – | – | – | – | – | 3.65 | 2360 | 0.114 | 0.157 | 0.477 | 1.43 | 2.39 | 2.5 | 2.6 | 2.63 | hAb001H1L1a (antibody, human IgG1, V domains shown, Humanized F2.169.2; VH H1 + VL L1a; expressed as human IgG1) VH: EVQLVESGGGLVQPGGSLRLSCAASGFSFNTNAMNWVRQAPGKGLEWVGRIRSKSNNYATYYADSVKDRFTISRDDSKNSLYLQMNSLKTEDTAVYYCVRDGYYVLFAYWGQGTLVTVSS VL: DIVMTQTPLSLPVTPGEPASISCRFSQSIVNSDGNTYLEWFLQKPGQSPQLLIYKVSNRFSGVPDRFSGSGSGTDFTLKISRVEAEDVGVYYCFQGSHVPFTFGQGTKLEIK
– | – | – | – | – | – | – | 0.399 | 3160 | – | – | – | – | – | – | – | – | hAb001H1L1b (antibody, human IgG1, V domains shown, Humanized F2.169.2; VH H1 + VL L1b; expressed as human IgG1) VH: EVQLVESGGGLVQPGGSLRLSCAASGFSFNTNAMNWVRQAPGKGLEWVGRIRSKSNNYATYYADSVKDRFTISRDDSKNSLYLQMNSLKTEDTAVYYCVRDGYYVLFAYWGQGTLVTVSS VL: DIVMTQTPLSLPVTPGEPASISCRFSQSIVNSNANTYLEWFLQKPGQSPQLLIYKVSNRFSGVPDRFSGSGSGTDFTLKISRVEAEDVGVYYCFQGSHVPFTFGQGTKLEIK
– | – | – | – | – | – | – | 1.63 | 2530 | – | – | – | – | – | – | – | – | hAb001H1aL1a (antibody, human IgG1, V domains shown, Humanized F2.169.2; VH H1a + VL L1a; expressed as human IgG1) VH: EVQLVESGGGLVQPGGSLRLSCAASGFSFNTNAMNWVRQAPGKGLEWVGRIRSKSNNYATYYADSVKGRFTISRDDSKNSLYLQMNSLKTEDTAVYYCVRDGYYVLFAYWGQGTLVTVSS VL: DIVMTQTPLSLPVTPGEPASISCRFSQSIVNSDGNTYLEWFLQKPGQSPQLLIYKVSNRFSGVPDRFSGSGSGTDFTLKISRVEAEDVGVYYCFQGSHVPFTFGQGTKLEIK

— US20260116991A1 (HAINAN SIMCERE ZAIMING PHARMACEUTICAL, published 2026)
